Results taken from patent US20130236458A1 (AbbVie / Abbott, published 2013).
Each block holds one binder with its values, some of them ahead of it.

What was measured:
Recombinant Human IL-17 [1] = target: T1, Recombinant Human IL-17 (human, UniProt Q16552 20-155, limits assumed); assay: cell-based or functional assay
T1 sequence (looked up): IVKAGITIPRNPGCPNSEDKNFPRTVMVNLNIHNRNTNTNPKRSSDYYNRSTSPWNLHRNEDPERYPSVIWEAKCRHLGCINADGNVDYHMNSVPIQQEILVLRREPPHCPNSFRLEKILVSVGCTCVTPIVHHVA

Recombinant Human IL-17 [2] = target: T1, Recombinant Human IL-17; assay: SPR (Biacore)
Procedure: (§1) The BIACORE assay (Biacore, Inc, Piscataway, N.J.) determined the affinity of antibodies or DVD-Ig with kinetic measurements of on-rate and off-rate constants. Binding of antibodies or DVD-Ig proteins to a target antigen (for example, a purified recombinant target antigen) was determined by surface plasmon resonance-based measurements with a Biacore®1000 or 3000 instrument (Biacore® AB, Uppsala, Sweden) using running HBS-EP (10 mM HEPES [pH 7.4], 150 mM NaCl, 3 mM EDTA, and 0.005% surfactant P20) at 25° C. All chemicals were obtained from Biacore® AB (Uppsala, Sweden) or otherwise from a different source as described in the text. For example, approximately 5000 RU of goat anti-mouse IgG, (Fcγ), fragment specific polyclonal antibody (Pierce Biotechnology Inc, Rockford, Ill.) diluted in 10 mM sodium acetate (pH 4.5) was directly immobilized across a CM5 research grade biosensor chip using a standard amine coupling kit according to manufacturer's instructions and procedures at 25 μg/ml. Unreacted moieties on the biosensor surface were blocked with ethanolamine. Modified carboxymethyl dextran surface in flowcell 2 and 4 was used as a reaction surface. Unmodified carboxymethyl dextran without goat anti-mouse IgG in flow cell 1 and 3 was used as the reference surface. For kinetic analysis, rate equations derived from the 1:1 Langmuir binding model were fitted simultaneously to association and dissociation phases of all eight injections (using global fit analysis) with the use of Biaevaluation 4.0.1 software. Purified antibodies or DVD-Ig proteins were diluted in HEPES-buffered saline for capture across goat anti-mouse IgG specific reaction surfaces. Antibodies or DVD-Ig proteins to be captured as a ligand (25 μg/ml) were injected over reaction matrices at a flow rate of 5 μl/minute. The association and dissociation rate constants, kₒₙ (M⁻¹s⁻¹) and koff (s⁻¹) were determined under a continuous flow rate of 25 μl/minute. Rate constants were derived by making kinetic binding measurements at different antigen concentrations ranging from 10-200 nM. The equilibrium dissociation constant (M) of the reaction between antibodies or DVD-Ig proteins and the target antigen was then calculated from the kinetic rate constants by the following formula: KD=koff/kₒₙ. Binding was recorded as a function of time and kinetic rate constants were calculated.

Recombinant Human IL-13 [3] = target: T2, Recombinant Human IL-13 (human, UniProt P35225 35-146, limits assumed); assay: cell-based or functional assay
Recombinant Human IL-13 [4] = target: T2, Recombinant Human IL-13; assay: SPR (Biacore)
Procedure: as §1

T2 sequence (P35225 35-146 limits assumed): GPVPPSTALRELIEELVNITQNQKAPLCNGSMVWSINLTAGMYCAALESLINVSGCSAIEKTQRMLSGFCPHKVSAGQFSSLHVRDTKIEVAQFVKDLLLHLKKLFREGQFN

IL17 Neutralization Assay IC50 (IL-6, HS27 cells) (Recombinant Human IL-17 [1]): 3 pM
Kd (Recombinant Human IL-17 [2]): 7.4 pM
koff (Recombinant Human IL-17 [2]): 8.2e-06 s⁻¹
kon (Recombinant Human IL-17 [2]): 1.1e+06 M⁻¹ s⁻¹
B1: AB274 (antibody, V domains shown)
VH: EVQLVQSGAEVKKPGSSVKVSCKASGGSFGGYGIGWVRQAPGQGLEWMGGITPFFGFADYAQKFQGRVTITADESTTTAYMELSGLTSDDTAVYYCARDPNEFWNGYYSTHDFDSWGQGTTVTVSS
VL: EIVLTQSPDFQSVTPKEKVTITCRASQDIGSELHWYQQKPDQPPKLLIKYASHSTSGVPSRFSGSGSGTDFTLTINGLEAEDAGTYYCHQTDSLPYTFGPGTKVDIKR
notes: parent antibody; also called AB274VH

IL17 Neutralization Assay IC50 (IL-6, HS27 cells) (Recombinant Human IL-17 [1]): 5.2 pM
Kd (Recombinant Human IL-17 [2]): 34 pM
koff (Recombinant Human IL-17 [2]): 6.5e-05 s⁻¹
kon (Recombinant Human IL-17 [2]): 1.9e+06 M⁻¹ s⁻¹
B2: AB275 (antibody, V domains shown)
VH: EVQLVQSGAEVKKPGESVKISCKASGGSFRSYGISWVRQAPGQGLEWMGGITHFFGITDYAQKFQGRVTITADESTTTAYMELSGLTSDDTAVYYCAREPNDFWNGYYDTHDFDSWGQGTTVTVSS
VL: EIVLTQSPDFQSVTPKEKVTITCRASQNIGSELHWYQQKPDQSPKLLIKYASHSISGVPSRFSGSGSGTDFTLTINGLEAEDAATYYCHQSDTLPHTFGQGTKVDIKR
notes: parent antibody; also called AB275VH

N-Terminal VD IL17 Neutralization Assay IC50 (Recombinant Human IL-17 [1]): 15.1 pM
C-Terminal VD IL13 Neutralization Assay IC50 (Recombinant Human IL-13 [3]): 195 pM
B3: DVD2163 (bispecific antibody)
VH: EVQLVQSGAEVKKPGESVKISCKASGGSFRSYGISWVRQAPGQGLEWMGGITHFFGITDYAQKFQGRVTITADESTTTAYMELSGLTSDDTAVYYCAREPNDFWNGYYDTHDFDSWGQGTTVTVSSASTKGPEVTLRESGPGLVKPTQTLTLTCTLYGFSLSTSDMGVDWIRQPPGKGLEWLAHIWWDDVKRYNPALKSRLTISKDTSKNQVVLKLTSVDPVDTATYYCARTVSSGYIYYAMDYWGQGTLVTVSS
VL: EIVLTQSPDFQSVTPKEKVTITCRASQNIGSELHWYQQKPDQSPKLLIKYASHSISGVPSRFSGSGSGTDFTLTINGLEAEDAATYYCHQSDTLPHTFGQGTKVDIKRTVAAPSVFIFPPDIQMTQSPSSLSASVGDRVTISCRASQDIRNYLNWYQQKPGKAPKLLIFYTSKLHSGVPSRFSGSGSGTDYTLTISSLQPEDIATYYCQQGLTPPLTFGGGTKVEIKR

IL13 Neutralization Assay IC50 (TARC, A549 cells) (Recombinant Human IL-13 [3]): 82 pM
Kd (Recombinant Human IL-13 [4]): 45 pM
koff (Recombinant Human IL-13 [4]): 2.8e-05 s⁻¹
kon (Recombinant Human IL-13 [4]): 630000 M⁻¹ s⁻¹
B4: AB398 (antibody, V domains shown)
VH: EVQLVQSGAEVKKPGASVKVSCKASGYTFTTYGVSWVRQAPGQGLEWMGEIYPGNYNTYYNEKFRGRVTMTTDTSTSTAYMELRSLRSDDTAVYYCARWRTSYFSDYGYFDYWGQGTTVTVSS
VL: DVVMTQSPLSLPVTLGQPASISCRSSQSLVHSHGNTYLHWYQQRPGQSPRLLIYTVSNRFSGVPDRFSGSGSGTDFTLKISRVEAEDVGVYYCSQSTHVPYTFGGGTKVEIKR
notes: parent antibody; also called AB398VH

IL17 Neutralization Assay IC50 (IL-6, HS27 cells) (Recombinant Human IL-17 [1]): 19.8 pM
Kd (Recombinant Human IL-17 [2]): < 0.5 pM
koff (Recombinant Human IL-17 [2]): < 1e-06 s⁻¹
kon (Recombinant Human IL-17 [2]): 2e+06 M⁻¹ s⁻¹
B5: AB273 (antibody, V domains shown)
VH: EVQLVQSGAEVKKPGSSVKVSCKASGYTFTDYEIHWVRQAPGQGLEWMGVNDPESGGTFYNQKFDGRVTLTADESTSTAYMELSSLRSEDTAVYYCTRYSKWDSFDGMDYWGQGTTVTVSS
VL: DIQMTQSPSSLSASVGDRVTITCRASSGIISYIDWFQQKPGKAPKRLIYATFDLASGVPSRFSGSGSGTDYTLTISSLQPEDFATYYCRQVGSYPETFGQGTKLEIKR
notes: parent antibody; also called AB273VH

C-Terminal VD IL17 Neutralization Assay IC50 (Recombinant Human IL-17 [1]): 21.3 pM
N-Terminal VD IL13 Neutralization Assay IC50 (Recombinant Human IL-13 [3]): 126 pM
B6: DVD2162 (bispecific antibody)
VH: EVTLRESGPGLVKPTQTLTLTCTLYGFSLSTSDMGVDWIRQPPGKGLEWLAHIWWDDVKRYNPALKSRLTISKDTSKNQVVLKLTSVDPVDTATYYCARTVSSGYIYYAMDYWGQGTLVTVSSASTKGPEVQLVQSGAEVKKPGESVKISCKASGGSFRSYGISWVRQAPGQGLEWMGGITHFFGITDYAQKFQGRVTITADESTTTAYMELSGLTSDDTAVYYCAREPNDFWNGYYDTHDFDSWGQGTTVTVSS
VL: DIQMTQSPSSLSASVGDRVTISCRASQDIRNYLNWYQQKPGKAPKLLIFYTSKLHSGVPSRFSGSGSGTDYTLTISSLQPEDIATYYCQQGLTPPLTFGGGTKVEIKRTVAAPSVFIFPPEIVLTQSPDFQSVTPKEKVTITCRASQNIGSELHWYQQKPDQSPKLLIKYASHSISGVPSRFSGSGSGTDFTLTINGLEAEDAATYYCHQSDTLPHTFGQGTKVDIKR

IL13 Neutralization Assay IC50 (TARC, A549 cells) (Recombinant Human IL-13 [3]): 33 pM
Kd (Recombinant Human IL-13 [4]): 130 pM
koff (Recombinant Human IL-13 [4]): 0.00012 s⁻¹
kon (Recombinant Human IL-13 [4]): 920000 M⁻¹ s⁻¹
B7: AB397 (antibody, V domains shown)
VH: EVTLRESGPGLVKPTQTLTLTCTLYGFSLSTSDMGVDWIRQPPGKGLEWLAHIWWDDVKRYNPALKSRLTISKDTSKNQVVLKLTSVDPVDTATYYCARTVSSGYIYYAMDYWGQGTLVTVSS
VL: DIQMTQSPSSLSASVGDRVTISCRASQDIRNYLNWYQQKPGKAPKLLIFYTSKLHSGVPSRFSGSGSGTDYTLTISSLQPEDIATYYCQQGLTPPLTFGGGTKVEIKR
notes: parent antibody; also called AB397VH

IL13 Neutralization Assay IC50 (TARC, A549 cells) (Recombinant Human IL-13 [3]): 43 pM
Kd (Recombinant Human IL-13 [4]): 19 pM
koff (Recombinant Human IL-13 [4]): 6.4e-05 s⁻¹
kon (Recombinant Human IL-13 [4]): 3.4e+06 M⁻¹ s⁻¹
B8: AB399 (antibody, V domains shown)
VH: EVQLVQSGAEVKKPGASVKVSCKASGYTFTSYWMHWVRQAPGQGLEWIGNINPKGGSNIYNEKFQGRVTMTRDTSISTAYMELSRLRSDDTAVYYCARLDYFGDSFDLWGQGTTVTVSS
VL: DIQMTQSPSSLSASVGDRVTITCRASQGIRNYLNWYQQKPGKAPKLLIYYASNLEVGVPSRFSGSGSGTDYTLTISSLQPEDFATYYCQQDNRFPYTFGGGTKVEIKR
notes: parent antibody; also called AB399VH

C-Terminal VD IL17 Neutralization Assay IC50 (Recombinant Human IL-17 [1]): 351 pM
N-Terminal VD IL13 Neutralization Assay IC50 (Recombinant Human IL-13 [3]): 430 pM
B9: DVD2154 (bispecific antibody)
VH: EVTLRESGPGLVKPTQTLTLTCTLYGFSLSTSDMGVDWIRQPPGKGLEWLAHIWWDDVKRYNPALKSRLTISKDTSKNQVVLKLTSVDPVDTATYYCARTVSSGYIYYAMDYWGQGTLVTVSSASTKGPEVQLVQSGAEVKKPGSSVKVSCKASGGSFGGYGIGWVRQAPGQGLEWMGGITPFFGFADYAQKFQGRVTITADESTTTAYMELSGLTSDDTAVYYCARDPNEFWNGYYSTHDFDSWGQGTTVTVSS
VL: DIQMTQSPSSLSASVGDRVTISCRASQDIRNYLNWYQQKPGKAPKLLIFYTSKLHSGVPSRFSGSGSGTDYTLTISSLQPEDIATYYCQQGLTPPLTFGGGTKVEIKRTVAAPEIVLTQSPDFQSVTPKEKVTITCRASQDIGSELHWYQQKPDQPPKLLIKYASHSTSGVPSRFSGSGSGTDFTLTINGLEAEDAGTYYCHQTDSLPYTFGPGTKVDIKR

C-Terminal VD IL17 Neutralization Assay IC50 (Recombinant Human IL-17 [1]): 703 pM
N-Terminal VD IL13 Neutralization Assay IC50 (Recombinant Human IL-13 [3]): 178 pM
B10: DVD2160 (bispecific antibody)
VH: EVTLRESGPGLVKPTQTLTLTCTLYGFSLSTSDMGVDWIRQPPGKGLEWLAHIWWDDVKRYNPALKSRLTISKDTSKNQVVLKLTSVDPVDTATYYCARTVSSGYIYYAMDYWGQGTLVTVSSASTKGPEVQLVQSGAEVKKPGESVKISCKASGGSFRSYGISWVRQAPGQGLEWMGGITHFFGITDYAQKFQGRVTITADESTTTAYMELSGLTSDDTAVYYCAREPNDFWNGYYDTHDFDSWGQGTTVTVSS
VL: DIQMTQSPSSLSASVGDRVTISCRASQDIRNYLNWYQQKPGKAPKLLIFYTSKLHSGVPSRFSGSGSGTDYTLTISSLQPEDIATYYCQQGLTPPLTFGGGTKVEIKRTVAAPEIVLTQSPDFQSVTPKEKVTITCRASQNIGSELHWYQQKPDQSPKLLIKYASHSISGVPSRFSGSGSGTDFTLTINGLEAEDAATYYCHQSDTLPHTFGQGTKVDIKR

C-Terminal VD IL17 Neutralization Assay IC50 (Recombinant Human IL-17 [1]): 15.5 pM
N-Terminal VD IL13 Neutralization Assay IC50 (Recombinant Human IL-13 [3]): 129 pM
B11: DVD2156 (bispecific antibody)
VH: EVTLRESGPGLVKPTQTLTLTCTLYGFSLSTSDMGVDWIRQPPGKGLEWLAHIWWDDVKRYNPALKSRLTISKDTSKNQVVLKLTSVDPVDTATYYCARTVSSGYIYYAMDYWGQGTLVTVSSASTKGPEVQLVQSGAEVKKPGSSVKVSCKASGGSFGGYGIGWVRQAPGQGLEWMGGITPFFGFADYAQKFQGRVTITADESTTTAYMELSGLTSDDTAVYYCARDPNEFWNGYYSTHDFDSWGQGTTVTVSS
VL: DIQMTQSPSSLSASVGDRVTISCRASQDIRNYLNWYQQKPGKAPKLLIFYTSKLHSGVPSRFSGSGSGTDYTLTISSLQPEDIATYYCQQGLTPPLTFGGGTKVEIKRTVAAPSVFIFPPEIVLTQSPDFQSVTPKEKVTITCRASQDIGSELHWYQQKPDQPPKLLIKYASHSTSGVPSRFSGSGSGTDFTLTINGLEAEDAGTYYCHQTDSLPYTFGPGTKVDIKR
